Measurements published in publication PMC5653362, “Formation of the chaperonin complex studied by 2D NMR spectroscopy” (PLoS ONE, 2017).

B1: Wild-type E. coli GroES, 15N-labeled form (native heptamer) (natural protein)
chain: MNIRPLHDRVIVKRKEVETKSAGGIVLTGSAAAKSTRGEVLAVGNGRILENGEVKPLDVKVGDIVIFNDGYGVKSEKIDNEEVLIMSESDILAIVEA
modifications: uniformly 15N-labeled
notes: GroES co-chaperonin of Escherichia coli, wild type; concentrations are of the heptamer; also called 15N-labeled GroES; P (protein); source: E. coli BL21(DE3), expression plasmid pETESwild, purified as described previously
B2: single-ring mutant (SR1) of GroEL (R452E, E461A, S463A and V464A) (natural protein, E. coli, UniProt P0A6F5 1-548, looked up)
chain: MAAKDVKFGNDARVKMLRGVNVLADAVKVTLGPKGRNVVLDKSFGAPTITKDGVSVAREIELEDKFENMGAQMVKEVASKANDAAGDGTTTATVLAQAIITEGLKAVAAGMNPMDLKRGIDKAVTAAVEELKALSVPCSDSKAIAQVGTISANSDETVGKLIAEAMDKVGKEGVITVEDGTGLQDELDVVEGMQFDRGYLSPYFINKPETGAVELESPFILLADKKISNIREMLPVLEAVAKAGKPLLIIAEDVEGEALATLVVNTMRGIVKVAAVKAPGFGDRRKAMLQDIATLTGGTVISEEIGMELEKATLEDLGQAKRVVINKDTTTIIDGVGEEAAIQGRVAQIRQQIEEATSDYDREKLQERVAKLAGGVAVIKVGAATEVEMKEKKARVEDALHATRAAVEEGVVAGGGVALIRVASKLADLRGQNEDQNVGIKVALRAMEAPLEQIVLNCGEAPAAVANTVKGGDGNYGYNAATEEYGNMIDMGILDPTKVTRSALQYAASVAGLMITTECMVTDLPKNDAADLGAAGGMGGMGGMGGMM
notes: GroEL chaperonin of Escherichia coli with four mutations at the contact sites between the two rings, forming a single heptameric ring; Non-labeled; heptameric single ring; concentrations are of the heptamer; The PDB entries hold the wild-type double-ring parent; also called L (ligand); heptameric SR1; source: expression plasmid constructed from pEL-WT; expressed and purified as described …

How the values were obtained:
Settings in all cases: both partners purified
[1] = target: B2; assay: NMR titration; 1H-15N HSQC of 21.4 uM 15N-labeled GroES with 0-42 uM SR1 (separate samples); 25°C; 3 mM ATP, 20 mM Tris-HCl, 100 mM KCl, 10 mM MgCl2, pH 7.5, 10% D2O; fit to single-step 1:1 binding (Eq 6)
[2] = target: B2; assay: NMR titration; 1H-15N HSQC of 21.4 uM 15N-labeled GroES with 0-42 uM SR1 (separate samples); 20°C; 3.0 mM ADP, 20 mM Tris-HCl, 100 mM KCl, 10 mM MgCl2, pH 7.5, 10% D2O; fit to single-step 1:1 binding (Eq 6)
[3] = target: B2; assay: NMR titration; 1H-15N HSQC of 21.4 uM 15N-labeled GroES with 0-42 uM SR1 (separate samples); 25°C; 3.0 mM ADP, 20 mM Tris-HCl, 100 mM KCl, 10 mM MgCl2, pH 7.5, 10% D2O; fit to single-step 1:1 binding (Eq 6)
[4] = target: B2; assay: NMR titration; 1H-15N HSQC of 21.4 uM 15N-labeled GroES with 0-42 uM SR1 (separate samples); 30°C; 3.0 mM ADP, 20 mM Tris-HCl, 100 mM KCl, 10 mM MgCl2, pH 7.5, 10% D2O; fit to single-step 1:1 binding (Eq 6)
[5] = target: B1; assay: NMR titration; van't Hoff plot of the Kb values from the NMR titrations at 20, 25 and 30°C; 3.0 mM ADP, 100 mM KCl, 10 mM MgCl2, pH 7.5

Binder	Ka [1]	Ka [2]	Ka [3]	Ka [4]	dH [5]
B1	2.35e+06 M⁻¹	141000 M⁻¹	189000 M⁻¹	223000 M⁻¹	
B2					35.1 ± 4.8 kJ/mol
